Data as given in US20030045688A1, “Human interleukin-four induced protein” (priority 2000, published 2003).

How the values were obtained:
[1] = FIG. 1 enzyme assay using OPD (L-amino acid oxidase activity); type: biochemical; conditions: for substrate preference of LAAO activity: L-amino acid substrates; for pH optimum of L-amino acid oxidase (LAAO) activity: pH value at which activity is maximal
Protocol: 3,3′,5,5′-tetramethylbenzidine (TMB) or o-phenylenediamine (OPD) is used as a chromogenic substrate in the FIG. 1 assay. TMB is advantageous because it is not mutagenic and therefore not likely to be carcinogenic, whereas OPD and o-dianisidine are mutagenic.
To perform these measurements, we developed a FIG. 1 enzyme assay using OPD as a substrate.
For the FIG. 1 enzyme assay using OPD, 10 μl of sample is added to a 190 μl assay mixture resulting in a 200 μl reaction with final concentration of 5 to 50 mM L-phenylalanine (Sigma, St. Louis, Mo.), 10 U/ml peroxidase (Sigma), 0.5 mg/ml OPD (Sigma), and 52.5 mM sodium acetate (pH 4). The reaction is incubated for 2 hours at 37° C., after which the reaction is stopped by the addition of 11 μl 36N sulfuric acid (H2SO4). The quantity of H2O2 generated is determined by measuring absorbance at 490 nm. FIG. 1 enzyme activity in Units is determined by comparison with a standard curve generated using known concentrations of H2O2. The amount of H2O2 (μM) corresponding to the observed absorbance at 490 nm is the amount of L-phenylalanine oxidized, since one H2O2 molecule is produced per L-amino acid oxidized. Therefore, FIG. 1 enzyme units can be calculated as follows:
Units (μmol/min)=(μM)/min×V
One unit oxidizes one micromole of L-phenylalanine per minute at 37° C. and pH 4.

[2] = tested on: murine B cell line (M.12.4.1); assay: Transfection of murine B cell line with vectors expressing mouse FIG. 1; cell toxicity; type: cell-based; conditions: clones expressing FIG. 1 in the insoluble cell fraction; no stable transfectants obtained
Source text: A murine B cell line (M.12.4.1) and fibroblast line (NIH3T3) is transfected with vectors expressing mouse FIG. 1. Specifically, a 1985 bp BamHI fragment containing the full length mouse FIG. 1 cDNA is inserted into the BamHI site of the pREP9 vector (InVitrogen, Carlsbad, Calif.), resulting in pMN10-9, a plasmid that expresses FIG. 1 mRNA from the vector's RSV 3′ LTR promoter. A 1930 bp PvuII/EcoRI fragment containing the full length mouse FIG. 1 cDNA is inserted into the Ecl126II/EcoRI sites of pIRES2-EGFP (Clontech), resulting in plasmid mFIG. 1-iGFP (also known as pAFFP), a plasmid that expresses FIG. 1 mRNA from the vector's CMV promoter.
NIH 3T3 cells are transfected with plasmid DNA using the calcium phosphate method. In particular, a Calcium Phosphate Mammalian Cell Transfection Kit (5 Prime→3 Prime, Inc., Boulder, Colo.) or Calcium Phosphate Transfection System (Life Technologies, Inc., Rockville, Md.) is used. A 40 μg plasmid DNA/calcium phosphate precipitate is prepared according to manufacturer's protocol and used to transfect 2×10^6 cells. M12.4. 1 cells are transfected by electorporation or with an Effectene Transfection Reagent (Qiagen, Inc., Valencia, Calif.). […]
During the selection of M.12.1 bulk transfectants, LAAO activity is detected after 15 days, peaking at 17 days, declining after 20 days to undetectable using procedures described above. […]

[3] = listed as interleukin four induced protein

B1: FIG. 1: mouse immediate early interleukin-four induced protein with L-amino acid oxidase activity (SEQ ID NO:1), expressed in transfected cells (protein, listed as Mus sp.)
chain: MAGLALRLVLAATLLGLAGSLDWKAASSLNPIEKCMEDHDYEQLLKVVTLGLNRTSKPQKVVVVGAGVAGLVAAKMLSDAGHKVTILEADNRIGGRIFTFRDEKTGWIGELGAMRMPSSHRILHKLCRTLGLNLTQFTQYDENTWTEVHNVKLRNYVVEKMPEKLGYNLNNRERGHSPEDIYQMALNKAFKDLKALGCKKAMNKFNKHTLLEYLLEEGNLSRPAVQLLGDVMSEEGFFYLSFAEALRAHACLSDRLRYSRIVGGWDLLPRALLSSLSGALLLNAPVVSITQGRNDVRVHIATSLHSEKTLTADVVLLTASGPALQRITFSPPLTRKRQEALRALHYVAASKVFLSFRRPFWHEEHIEGGHSNTDRPSRLIFYPARGEGSLLLASYTWSDAAAPFAGLSTDQTLRLVLQDVAALHGPVVFRLWDGRGVVKRWAEDPHSQGGFVVQPPLYGREAEDYDWSAPFGRIYFAGEHTALPHGWVETAVKSGLRAAVRINNNYGYGEVDPQMMEHAYAEANYLDQYPEGERPEEQQAREEVSPDEQEPSHKHLLVETSPEGQQHAFVEAIPELQGHVFVETVPQEKGHAHQNIYPSEHVQVHGEVIPEWHGHGGSGTPQMHRVGDHS
- substrate preference of LAAO activity [1]: prefers aromatic amino acids as a substrate, with phenylalanine (Phe) being the optimal substrate
- substrate preference of LAAO activity ([1]; listed as FIG. 1 protein): prefers aromatic L-amino acids for substrates, particularly L-phenylalanine
- substrate preference of LAAO activity [1, 3]: lesser specificity for other aromatic amino acids such as tyrosine and tryptophan
- LAAO activity at pH values other than the optimum ([1]; compared with pH 4.0): lower activity at pH 5, 8 and 9
- pH optimum of L-amino acid oxidase (LAAO) activity [1]: 4
- pH optimum of L-amino acid oxidase (LAAO) activity ([1]; listed as FIG. 1 protein): 4
- pH optimum of L-amino acid oxidase (LAAO) activity [1, 3]: 4.0
- cell death in FIG. 1 transfectants [2]: significant cell death
